± gives the uncertainty stated by the source.
Experiment: self-splicing fitness, log relative to wild type (ln ratio); higher = more splicing; Tetrahymena group I intron in knt gene, E. coli kanamycin selection, DiMSum; sequences stand for … in CUCUCU…GGAGGGAAAAGUUAUCAGGCAUGCACCUGGUAGCUAGUCUUUAAACCAAUAGAUUGCAUCGGUUUAAAAGGCAAGACCGUCAAAUUGCGGGAAAGGGGUCAACAGCCGUUCAGUACCAAGUCUCAGGGGAAACUUUGAGAUGGCCUUGCAAAGGGUAUGGUAAUAAGCUGACGGACAUGGUCCUAACCACGCAGCCAAGUCCUAAGUCAACAGAUCUUCUGUUGAUAUGGAUGCAGUUCACAGACUAAAUGUCGGUCGGGGAAGAUGUAUUCUUCUCAUAAGAUAUAGUCGGACCUCUCCUUAAUGGGAGCUAGCGGAUGAAGUGAUGCAACACUGGAGCCGCUGGGAACUAAUUUGUAUGCGAAAGUAUAUUGAUUAGUUUUGGAGUACUCGUGGUCG
How it was run: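 The eight P1ex-region nucleotides of an intron in the knt kanamycin-resistance gene on pET-22b(+) were all randomised and the library put into E. coli BL21(DE3). Six replicate transformations were grown overnight at 37°C or 30°C on LB agar with or without 25 μg/mL kanamycin, together with 100 μg/mL carbenicillin, 50 μM IPTG and 0.2% rhamnose. Colonies were pooled and amplicon-sequenced on an Illumina HiSeq 2500. Fitness from DiMSum is the error-weighted combination of wild-type-normalised replicate fold changes, kanamycin over none.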

## AGCCAGCAAUAUUACGAAUA
30 °C
  self-splicing fitness (ln): -3.25 ± 0.27
37 °C
  self-splicing fitness (ln): -2.94 ± 0.3

## AGCCAGCAAUAUUACGACAA
30 °C
  self-splicing fitness (ln): -3.47 ± 0.23
37 °C
  self-splicing fitness (ln): -3.18 ± 0.2

## AGCCAGCAAUAUUACGAGCA
30 °C
  self-splicing fitness (ln): -0.932 ± 0.11
37 °C
  self-splicing fitness (ln): 0.49 ± 0.14

## AGCCAGCAAUAUUACGAUCG
30 °C
  self-splicing fitness (ln): -3.74 ± 0.26
37 °C
  self-splicing fitness (ln): -1.69 ± 0.15

## AGCCAGCAAUAUUACGAUGC
30 °C
  self-splicing fitness (ln): -3.79 ± 0.47
37 °C
  self-splicing fitness (ln): -0.986 ± 0.2

## AGCCAGCAAUAUUACGAUUA
30 °C
  self-splicing fitness (ln): -2.22 ± 0.27
37 °C
  self-splicing fitness (ln): -2.48 ± 0.28

## AGCCAGCAAUAUUACGCAUC
30 °C
  self-splicing fitness (ln): -3.75 ± 0.2
37 °C
  self-splicing fitness (ln): -3.03 ± 0.17

## AGCCAGCAAUAUUACGCGUG
30 °C
  self-splicing fitness (ln): -1.91 ± 0.089
37 °C
  self-splicing fitness (ln): -1.35 ± 0.092

## AGCCAGCAAUAUUACGCUAG
30 °C
  self-splicing fitness (ln): -2.97 ± 0.25
37 °C
  self-splicing fitness (ln): -2.81 ± 0.25

## AGCCAGCAAUAUUACGGAUU
30 °C
  self-splicing fitness (ln): -2.85 ± 0.1
37 °C
  self-splicing fitness (ln): -0.534 ± 0.093

## AGCCAGCAAUAUUACGGCGU
30 °C
  self-splicing fitness (ln): -1.61 ± 0.09
37 °C
  self-splicing fitness (ln): -1.44 ± 0.12

## AGCCAGCAAUAUUACGGCUC
30 °C
  self-splicing fitness (ln): -2.52 ± 0.18
37 °C
  self-splicing fitness (ln): -3.14 ± 0.31

## AGCCAGCAAUAUUACGGGAC
30 °C
  self-splicing fitness (ln): -2.67 ± 0.22
37 °C
  self-splicing fitness (ln): -2.7 ± 0.27

## AGCCAGCAAUAUUACGGGCC
30 °C
  self-splicing fitness (ln): -2.77 ± 0.2
37 °C
  self-splicing fitness (ln): -3.49 ± 0.46

## AGCCAGCAAUAUUACGUAUA
30 °C
  self-splicing fitness (ln): -3.4 ± 0.14
37 °C
  self-splicing fitness (ln): -2.69 ± 0.17

## AGCCAGCAAUAUUACGUAUU
30 °C
  self-splicing fitness (ln): -3.72 ± 0.13
37 °C
  self-splicing fitness (ln): -2.05 ± 0.12

## AGCCAGCAAUAUUACGUCCA
30 °C
  self-splicing fitness (ln): -2.69 ± 0.18
37 °C
  self-splicing fitness (ln): -1.99 ± 0.2

## AGCCAGCAAUAUUACGUGAA
30 °C
  self-splicing fitness (ln): -3.14 ± 0.091
37 °C
  self-splicing fitness (ln): -1.81 ± 0.1

## AGCCAGCAAUAUUACGUGUC
30 °C
  self-splicing fitness (ln): -3.17 ± 0.12
37 °C
  self-splicing fitness (ln): -0.932 ± 0.083

## AGCCAGCAAUAUUACGUUGU
30 °C
  self-splicing fitness (ln): -3.58 ± 0.21
37 °C
  self-splicing fitness (ln): -2.01 ± 0.15

## AGCGAGCAAUAUUACGACAG
37 °C
  self-splicing fitness (ln): -2.08 ± 0.4

## AGCGAGCAAUAUUACGACCU
30 °C
  self-splicing fitness (ln): -0.933 ± 0.15
37 °C
  self-splicing fitness (ln): -0.654 ± 0.15

## AGCGAGCAAUAUUACGAUCA
30 °C
  self-splicing fitness (ln): -1.94 ± 0.26
37 °C
  self-splicing fitness (ln): -2.08 ± 0.37

## AGCGAGCAAUAUUACGAUCG
30 °C
  self-splicing fitness (ln): -1.79 ± 0.25
37 °C
  self-splicing fitness (ln): -1.63 ± 0.3

## AGCGAGCAAUAUUACGAUUU
30 °C
  self-splicing fitness (ln): -1.4 ± 0.1
37 °C
  self-splicing fitness (ln): -0.548 ± 0.14

## AGCGAGCAAUAUUACGCCCG
37 °C
  self-splicing fitness (ln): -0.109 ± 0.42

## AGCGAGCAAUAUUACGCCGG
30 °C
  self-splicing fitness (ln): -3.03 ± 0.27
37 °C
  self-splicing fitness (ln): -2.44 ± 0.5

## AGCGAGCAAUAUUACGGAGC
37 °C
  self-splicing fitness (ln): -2.92 ± 0.4

## AGCGAGCAAUAUUACGGAGG
30 °C
  self-splicing fitness (ln): -3.59 ± 0.47
37 °C
  self-splicing fitness (ln): -1.53 ± 0.33

## AGCGAGCAAUAUUACGGAUA
30 °C
  self-splicing fitness (ln): -2.18 ± 0.39
37 °C
  self-splicing fitness (ln): -2.17 ± 0.34

## AGCGAGCAAUAUUACGGCCA
30 °C
  self-splicing fitness (ln): -1.8 ± 0.099
37 °C
  self-splicing fitness (ln): -1.27 ± 0.078

## AGCGAGCAAUAUUACGGCCC
30 °C
  self-splicing fitness (ln): -1.03 ± 0.28
37 °C
  self-splicing fitness (ln): -0.383 ± 0.24

## AGCGAGCAAUAUUACGGGAC
37 °C
  self-splicing fitness (ln): -2.99 ± 0.38

## AGCGAGCAAUAUUACGGUUA
30 °C
  self-splicing fitness (ln): -1.22 ± 0.12
37 °C
  self-splicing fitness (ln): -1.9 ± 0.11

Source: the supplement of paper PMC7877785
